In this data set the target is T1, Elk-1 (Homo sapiens, UniProt P19419 P19419:1-428).
T1 sequence: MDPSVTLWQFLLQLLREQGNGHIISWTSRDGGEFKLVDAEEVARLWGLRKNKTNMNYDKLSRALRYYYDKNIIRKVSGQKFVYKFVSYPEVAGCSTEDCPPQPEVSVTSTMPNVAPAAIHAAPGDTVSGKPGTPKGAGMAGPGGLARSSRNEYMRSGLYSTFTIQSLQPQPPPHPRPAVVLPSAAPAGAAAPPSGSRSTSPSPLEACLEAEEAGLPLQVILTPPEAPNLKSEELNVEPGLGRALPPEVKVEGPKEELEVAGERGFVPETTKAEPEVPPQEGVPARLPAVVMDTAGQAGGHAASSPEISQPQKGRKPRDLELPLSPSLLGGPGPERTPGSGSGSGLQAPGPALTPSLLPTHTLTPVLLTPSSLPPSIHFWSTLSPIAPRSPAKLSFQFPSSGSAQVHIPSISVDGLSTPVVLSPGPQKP
As to the kind of experiment: EMSA; bound to a greater extent than G allele; 50 mM HEPES pH 7.5, 10 mM MgCl2, on ice 1 h, then Elk-1 antibody. The settings on record: tags: recombinant human Elk-1, Sigma Aldrich. As for the experimental part: FIG. 2 depicts binding of recombinant Elk-1 protein (an ETS transcription factor) to double stranded DNAs containing the single nucleotide polymorphism (SNP) rs3764030 variant A allele from the human GRIN2B gene promoter. Double-stranded DNA targets (Methods) were sequentially incubated with 1 μg recombinant human Elk-1 protein in EMSA buffer, then incubated with the Elk-1 antibody 20 minutes. […] Samples were electrophoresed through 6% polyacrylamide gels in HEPES buffer pH 6.3, without polydldC. The gel was then stained with the SYBR Green to visualize DNA and SYPRO Ruby for protein bound to DNA. The stained gel was scanned using G:BOX (Syngene, US) for imaging. Elk-1 bound to DNA is indicated by the arrow.
The complementary pairs of DNA oligonucleotides were first annealed in Biorad C1000 thermocycler with 1° C./1 min decreasing from 95° C. to 20° C. The annealing buffer composition was 10 mM Tris-HCl pH 8.0, 1 mM EDTA and 50 mM NaCl. The annealed dsDNA was then incubated with 1 μg recombinant human Elk-1 protein (Sigma Aldrich, US) on ice for 1 hour in EMSA buffer, then incubated with the Elk-1 antibody (SC-355)(Santa Cruz Technology, US) 20 minutes in room temperature. The compositions of EMSA buffer was 50 mM HEPES pH7.5, 10 mM MgCl₂, 5% glycerol, 1 mM DTT, 0.3% BSA and 1 mM EDTA. […]
A general note: In EMSA bound probe runs differently from free probe, usually more slowly.

B1: GRIN2B promoter rs3764030 A allele probe (dsDNA)
DNA 1: CATCTCCGGGGAACACGCGAA
DNA 2: TTCGCGTGTTCCCCGGAGATG
With B1, the binding result was “binds”.

These data come from patent US20170349943, “METHODS FOR DETECTING ENHANCED NMDA RECEPTOR FUNCTION AND USES THEREOF” (INOVA HEALTH SYSTEM, published 2017).
